Legend:
[1] = target: T1, Cactus, truncated form consisting of its ankyrin repeat domain, N-terminal His tag (Drosophila melanogaster); assay: SPR; Biacore 3000, room temperature; IkB or Ank immobilised on CM5 by amine coupling (about 5500 RU); Rel homodimer as analyte, kinetic titration, five doubling injections (typically 160 nM to 2.56 uM), 60 or 90 s, 30 uL/min; 10 mM HEPES pH 7.4, 150 mM NaCl, 3.4 mM EDTA, 0.005% P20; 1:1 Langmuir fit; conditions: both partners purified
T1 chain: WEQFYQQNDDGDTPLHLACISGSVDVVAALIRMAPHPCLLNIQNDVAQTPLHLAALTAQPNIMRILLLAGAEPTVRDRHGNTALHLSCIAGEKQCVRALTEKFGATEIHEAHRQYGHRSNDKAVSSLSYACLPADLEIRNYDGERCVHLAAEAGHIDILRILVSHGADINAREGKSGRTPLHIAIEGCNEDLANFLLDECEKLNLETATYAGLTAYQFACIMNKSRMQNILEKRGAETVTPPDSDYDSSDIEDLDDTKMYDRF

[2] = target: the molecule itself; assay: SEC; gel filtration of each purified recombinant protein, compared with molecular mass standards
[3] = target: T2, Rel-49, the C-terminal IkB domain of Relish, N-terminal StrepTagII and C-terminal His tag (Drosophila melanogaster); assay: SPR; Biacore 3000, room temperature; IkB or Ank immobilised on CM5 by amine coupling (about 5500 RU); Rel homodimer as analyte, kinetic titration, five doubling injections (typically 160 nM to 2.56 uM), 60 or 90 s, 30 uL/min; 10 mM HEPES pH 7.4, 150 mM NaCl, 3.4 mM EDTA, 0.005% P20; 1:1 Langmuir fit; conditions: both partners purified
T2 construct: Rel-49, the C-terminal IkB fragment that is left after cleavage of compound Relish (Rel-110), Drosophila, GenBank AAF54333; Cloned without a stop codon into pET51-EK-LIC; source: E. coli BL21 (DE3), purified
T2 sequence (Q94527 whole entry, looked up): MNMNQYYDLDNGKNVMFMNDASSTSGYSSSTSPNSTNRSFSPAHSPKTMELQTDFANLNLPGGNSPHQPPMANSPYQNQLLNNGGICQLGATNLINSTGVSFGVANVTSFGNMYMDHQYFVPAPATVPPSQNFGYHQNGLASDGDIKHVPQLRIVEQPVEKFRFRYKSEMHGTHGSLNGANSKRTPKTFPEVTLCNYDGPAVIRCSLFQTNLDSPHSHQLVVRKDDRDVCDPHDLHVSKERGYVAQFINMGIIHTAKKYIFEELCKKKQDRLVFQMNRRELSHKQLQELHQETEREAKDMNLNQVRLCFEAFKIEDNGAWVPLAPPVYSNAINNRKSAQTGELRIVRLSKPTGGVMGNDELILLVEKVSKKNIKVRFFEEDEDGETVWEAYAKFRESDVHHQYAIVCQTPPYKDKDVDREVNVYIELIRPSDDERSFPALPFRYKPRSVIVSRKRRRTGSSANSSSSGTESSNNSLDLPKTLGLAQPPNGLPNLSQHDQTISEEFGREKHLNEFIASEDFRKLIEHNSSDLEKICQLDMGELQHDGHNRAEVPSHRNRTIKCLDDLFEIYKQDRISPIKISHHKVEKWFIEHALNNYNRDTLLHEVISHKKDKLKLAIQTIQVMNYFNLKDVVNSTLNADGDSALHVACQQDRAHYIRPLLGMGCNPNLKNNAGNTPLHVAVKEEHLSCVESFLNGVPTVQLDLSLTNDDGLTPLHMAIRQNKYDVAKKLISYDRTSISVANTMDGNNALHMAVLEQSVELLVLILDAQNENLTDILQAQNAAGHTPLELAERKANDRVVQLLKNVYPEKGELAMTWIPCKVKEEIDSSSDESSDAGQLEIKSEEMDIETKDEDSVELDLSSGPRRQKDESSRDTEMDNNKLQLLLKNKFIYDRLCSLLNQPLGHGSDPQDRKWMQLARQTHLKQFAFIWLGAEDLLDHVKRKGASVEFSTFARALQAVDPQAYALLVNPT

[4] = target: T3, Ank-H4 of Microplitis demolitor bracovirus, full length, N-terminal His tag (Microplitis demolitor bracovirus (MdBV)); assay: as above; conditions: both partners purified
T3 construct: Ank-H4, Microplitis demolitor bracovirus (MdBV), GenBank AY875685; consists of only an ankyrin repeat domain; amplified from MdBV genomic DNA; pET-30-EK-LIC; source: E. coli BL21 (DE3), purified (Ni-NTA); not shown: His6, N-terminal, kept

[5] = target: T4, Dif, truncated (RHD, NLS and 20 additional C-terminal residues), StrepTagII-tagged (Drosophila melanogaster); assay: SEC; gel filtration of each purified recombinant protein, compared with molecular mass standards; conditions: both partners purified
T4 chain: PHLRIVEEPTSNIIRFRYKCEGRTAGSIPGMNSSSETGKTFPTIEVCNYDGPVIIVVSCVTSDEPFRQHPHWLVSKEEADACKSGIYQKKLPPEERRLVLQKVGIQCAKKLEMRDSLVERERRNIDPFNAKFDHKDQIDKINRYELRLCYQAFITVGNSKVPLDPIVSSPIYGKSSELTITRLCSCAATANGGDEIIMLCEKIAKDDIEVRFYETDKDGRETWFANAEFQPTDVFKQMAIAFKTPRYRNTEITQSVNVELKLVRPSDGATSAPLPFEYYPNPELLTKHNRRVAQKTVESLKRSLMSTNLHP

[6] = target: T4, Dif, truncated (RHD, NLS and 20 …); assay: SPR; Biacore 3000, room temperature; Dif immobilised on CM5 by amine coupling, Cactus as analyte (Table 1); kinetic titration; 10 mM HEPES pH 7.4, 150 mM NaCl, 3.4 mM EDTA, 0.005% P20; 1:1 Langmuir fit; conditions: both partners purified

T3 sequence (Q5I144 whole entry, the tested form may be a part): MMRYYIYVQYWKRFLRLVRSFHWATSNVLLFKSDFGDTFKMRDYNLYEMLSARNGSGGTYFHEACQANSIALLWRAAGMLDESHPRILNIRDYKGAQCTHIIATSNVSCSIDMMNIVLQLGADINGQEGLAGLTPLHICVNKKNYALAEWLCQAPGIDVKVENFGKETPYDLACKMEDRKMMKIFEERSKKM

B1: Relish, truncated (RHD, NLS and 20 additional C-terminal residues), StrepTagII-tagged (domain or fragment)
chain: KHVPQLRIVEQPVEKFRFRYKSEMHGTHGSLNGANSKRTPKTFPEVTLCNYDGPAVIRCSLFQTNLDSPHSHQLVVRKDDRDVCDPHDLHVSKERGYVAQFINMGIIHTAKKYIFEELCKKKQDRLVFQMNRRELSHKQLQELHQETEREAKDMNLNQVRLCFEAFKIEDNGAWVPLAPPVYSNAINNRKSAQTGELRIVRLSKPTGGVMGNDELILLVEKVSKKNIKVRFFEEDEDGETVWEAYAKFRESDVHHQYAIVCQTPPYKDKDVDREVNVYIELIRPSDDERSFPALPFRYKPRSVIVSRKRRRTGSSANSSSSGTESSNNSLD
modifications: Limits come from the Table S1 cactus primers. The forward primer, after the LIC extension …, encodes WEQFYQQN. The reverse primer encodes DTKMYDRF followed by a stop. Positions were …
Kd [1]: 2190 nM
koff [1]: 0.00241 s⁻¹
kon [1]: 1100 M⁻¹ s⁻¹

B2: Dorsal, truncated (RHD, NLS and 20 additional C-terminal residues), StrepTagII-tagged (domain or fragment)
chain: PYVKITEQPAGKALRFRYECEGRSAGSIPGVNSTPENKTYPTIEIVGYKGRAVVVVSCVTKDTPYRPHPHNLVGKEGCKKGVCTLEINSETMRAVFSNLGIQCVKKKDIEAALKAREEIRVDPFKTGFSHRFQPSSIDLNSVRLCFQVFMESEQKGRFTSPLPPVVSEPIFDKKAMSDLVICRLCSCSATVFGNTQIILLCEKVAKEDISVRFFEEKNGQSVWEAFGDFQHTDVHKQTAITFKTPRYHTLDITEPAKVFIQLRRPSDGVTSEALPFEYVPMDSDPAHLRRKRQKTGGDPMHLLLQQQQKQQLQN
modifications: Limits come from the Table S1 cactus primers. The forward primer, after the LIC extension …, encodes WEQFYQQN. The reverse primer encodes DTKMYDRF followed by a stop. Positions were …
Kd [1]: 195 nM
koff [1]: 0.00193 s⁻¹
kon [1]: 9890 M⁻¹ s⁻¹

B3: Dif, truncated (RHD, NLS and 20 additional C-terminal residues), N-terminal thioredoxin fusion (domain or fragment)
chain: PHLRIVEEPTSNIIRFRYKCEGRTAGSIPGMNSSSETGKTFPTIEVCNYDGPVIIVVSCVTSDEPFRQHPHWLVSKEEADACKSGIYQKKLPPEERRLVLQKVGIQCAKKLEMRDSLVERERRNIDPFNAKFDHKDQIDKINRYELRLCYQAFITVGNSKVPLDPIVSSPIYGKSSELTITRLCSCAATANGGDEIIMLCEKIAKDDIEVRFYETDKDGRETWFANAEFQPTDVFKQMAIAFKTPRYRNTEITQSVNVELKLVRPSDGATSAPLPFEYYPNPELLTKHNRRVAQKTVESLKRSLMSTNLHPSKQV
stoichiometry N [2]: 2

B4: Dif, truncated (RHD, NLS and 20 additional C-terminal residues), StrepTagII-tagged (domain or fragment)
chain: T4 chain
modifications: homodimer by gel filtration; StrepTagII left out. Limits: RHD start 78 and NLS end 368 from UniProt features, plus 20 residues; exact limits are only in Figure 1A
Kd [3]: 1840 nM
koff [3]: 0.000966 s⁻¹
kon [3]: 524 M⁻¹ s⁻¹
Kd [4]: 581 nM
koff [4]: 0.00384 s⁻¹
kon [4]: 6620 M⁻¹ s⁻¹

B5: Dif, truncated (RHD, NLS and 20 additional C-terminal residues), StrepTagII-tagged (domain or fragment)
chain: T4 chain
modifications: homodimer by gel filtration; StrepTagII left out. Limits: RHD start 78 and NLS end 368 from UniProt features, plus 20 residues; exact limits are only in Figure 1A / homodimer by gel filtration …
stoichiometry N [5]: 2

B6: Cactus, truncated form consisting of its ankyrin repeat domain, N-terminal His tag (domain or fragment)
chain: T1 chain
modifications: Limits come from the Table S1 cactus primers. The forward primer, after the LIC extension …, encodes WEQFYQQN. The reverse primer encodes DTKMYDRF followed by a stop. Positions were …
Kd [6]: 110 nM
koff [6]: 0.00578 s⁻¹
kon [6]: 52500 M⁻¹ s⁻¹

— article PMC3359993, “Polydnavirus Ank Proteins Bind NF-κB Homodimers and Inhibit Processing of Relish” (PLoS Pathogens, 2012)
